The values below come from PMC7864067.

This test addresses PFN2 (endogenous, isoform not told apart) (human (endogenous in HAP1)) (UniProt P35080).
Sequence of UniProt P35080 (P35080 whole entry, canonical isoform): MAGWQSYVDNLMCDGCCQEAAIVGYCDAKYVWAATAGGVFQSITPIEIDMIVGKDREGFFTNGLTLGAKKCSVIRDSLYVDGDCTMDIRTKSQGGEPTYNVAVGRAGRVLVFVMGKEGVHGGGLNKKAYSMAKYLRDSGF

V5-NAA80 (M23L) Δ238-284 (enzyme) displayed an actin reacetylation assay in HAP1 NAA80-KO cells, 8-14 h after transfection: Ac-β-actin signal normalised to V5, compared with cells transfected with NAA80-WT, at 14 h of 64% and an actin reacetylation assay in HAP1 NAA80-KO cells, 8-14 h after transfection: Ac-γ-actin signal normalised to V5, compared with cells transfected with NAA80-WT, at 14 h of 62%.
